How the values were obtained:
[1] = target: T1, CD40 (Acro Biosystems), coated on plate (UniProt P25942 21-193); assay: ELISA, CD40 coated at 1 µg/ml, detection with anti-human IgG-Fc-peroxidase
T1 construct: Bought antigen; the construct is not described; also called target antigen
Procedure: (§1) The affinities of the exemplary monovalent antibodies, in the prodrug and activated forms, were measured by an ELISA assay. Briefly, target antigens, CD40 or CTLA4 (both from Acro Biosystems), were coated at 1 μg/ml in a Nunc MaxiSorp plate (ThermoFisher) for 1 hour and blocked with SuperBlock (ThermoFisher). The exemplary monovalent antibodies, whether intact or matriptase-activated, were added at concentrations ranging from 0.001 to 1000 nM, as indicated in the x-axis of each plot shown in FIG. 4, and incubated for 1 hour at room temperature. Plates were washed 3 times using PBS supplemented with 0.05% Tween-20 (PBS-T). Goat anti-human IgG-Fc-peroxidase conjugate antibody (Sigma) was used at 1:10,000 dilution in PBS-T and incubated for an additional hour. Plates were washed 3 times using PBS-T, followed by development using TMB substrate (ThermoFisher), and neutralizing with 0.1 M sulfuric acid. The resulting colorimetric assay was measured at 450 nm using SpectraMax spectrophotometer (Molecular Devices).
(§2) Differential binding of the inducible monovalent antibodies in their prodrug and active forms was determined by comparing the apparent KD of the untreated (prodrug) or the protease-treated (active) forms of the inducible monovalent antibodies to their target antigens in an ELISA assay (results shown in FIG. 4).

[2] = target: T2, CTLA4 (Acro Biosystems), coated on plate (UniProt P16410 37-162, limits assumed); assay: ELISA, CTLA4 coated at 1 µg/ml, detection with anti-human IgG-Fc-peroxidase
T2 construct: Bought antigen; the construct is not described; also called target antigen
T2 sequence (looked up): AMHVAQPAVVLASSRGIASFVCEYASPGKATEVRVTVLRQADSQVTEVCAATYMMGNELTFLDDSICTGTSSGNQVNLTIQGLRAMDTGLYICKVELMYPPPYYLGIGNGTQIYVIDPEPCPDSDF
Procedure: as §1, §2

T1 sequence (P25942 21-193 limits assumed): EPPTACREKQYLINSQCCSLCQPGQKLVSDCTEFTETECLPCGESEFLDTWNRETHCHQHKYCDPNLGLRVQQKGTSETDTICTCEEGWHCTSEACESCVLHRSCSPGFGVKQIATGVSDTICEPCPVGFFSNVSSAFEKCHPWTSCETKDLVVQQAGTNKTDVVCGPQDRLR

B1: Dace-ProMonoMab, matriptase-treated (active form) (antibody, V domains shown)
VH: EVQLVESGGGLVQPGGSLRLSCAASGYSFTGYYIHWVRQAPGKGLEWVARVIPNAGGTSYNQKFKGRFTLSVDNSKNTAYLQMNSLRAEDTAVYYCAREGIYWWGQGTLVTVSS
VL: DIQMTQSPSSLSASVGDRVTITCRSSQSLVHSNGNTFLHWYQQKPGKAPKLLIYTVSNRFSGVPSRFSGSGSGTDFTLTISSLQPEDFATYFCSQTTHVPWTFGQGTKVEIKG
notes: Same chains as the prodrug, treated overnight with 40 nM recombinant human matriptase; also called protease-treated
fold difference in apparent affinity (apparent KD), matriptase-treated against untreated prodrug [1]: 5.1 fold

B2: Treme-ProMonoMab, matriptase-treated (active form) (antibody, V domains shown)
VH: QVQLVESGGGVVQPGRSLRLSCAASGFTFSSYGMHWVRQAPGKGLEWVAVIWYDGSNKYYADSVKGRFTISRDNSKNTLYLQMNSLRAEDTAVYYCARDPRGATLYYYYYGMDVWGQGTTVTVSS
VL: DIQMTQSPSSLSASVGDRVTITCRASQSINSYLDWYQQKPGKAPKLLIYAASSLQSGVPSRFSGSGSGTDFTLTISSLQPEDFATYYCQQYYSTPFTFGPGTKVEIKG
notes: as for B1
fold difference in apparent affinity (apparent KD), matriptase-treated against untreated prodrug [2]: 5.3 fold

B3: Seli-ProMonoMab, matriptase-treated (active form) (antibody, V domains shown)
VH: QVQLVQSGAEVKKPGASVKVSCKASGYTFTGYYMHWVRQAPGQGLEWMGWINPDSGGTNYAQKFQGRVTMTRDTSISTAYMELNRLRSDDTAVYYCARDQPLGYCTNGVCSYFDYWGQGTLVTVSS
VL: DIQMTQSPSSVSASVGDRVTITCRASQGIYSWLAWYQQKPGKAPNLLIYTASTLQSGVPSRFSGSGSGTDFTLTISSLQPEDFATYYCQQANIFPLTFGGGTKVEIKG
notes: Same chains as the prodrug, treated overnight with 40 nM recombinant human matriptase
fold difference in apparent affinity (apparent KD), matriptase-treated against untreated prodrug [1]: 2 fold
